Source: the supplement of paper PMC10567573

B1: EHMT1 (parent)
chain: FHKDCASRVNNASYCPHCGEESSK

Variants of: B1
Assay: protein stability index of a GFP-peptide fusion (GPS, HEK-293T) (PSI 1-6); higher = more stable
Settings: c terminus: a fixed tail appended
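Further: lentivirally expressed fusions sorted by FACS into six bins by GFP to DsRed ratio, PSI derived from sequencing read proportions per bin multiplied by bin number.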

Variant	protein stability index
FHKDCASRYNNASYCPHCGEESSK [V9Y]	3.21
FHKDCASRVNNASYCPHCDEESSK [G19D]	3.9
FHHDCASRVNNASYCPHCGEESSK [K3H]	2.9
FHKDCASRKNNASYCPHCGEESSK [V9K]	3.66
FHSDCASRVNNASYCPHCGEESSK [K3S]	2.01
FHKDCAIRVNNASYCPHCGEESSK [S7I]	3.54
FHKDCASRVNNASYCPHCGEESSR [K24R]	2.5
FHKDCASRVNNASYCPHPGEESSK [C18P]	3.79
FHKDCASRVNNASYCYHCGEESSK [P16Y]	2.58
FHKDCASRVNNASYCPDCGEESSK [H17D]	3.84
FHKDCASRVNNASYCWHCGEESSK [P16W]	1.66
FHKDCASKVNNASYCPHCGEESSK [R8K]	3.46
FGKDCASRVNNASYCPHCGEESSK [H2G]	3.6
FHKDCASRVNNASYCPHCGELSSK [E21L]	2.55
FHKDCASRPNNASYCPHCGEESSK [V9P]	3.84
FHKDSASRVNNASYCPHCGEESSK [C5S]	2.56
FHKDCASRVNNASYHPHCGEESSK [C15H]	3.56
FHKDCASRVNNASYCPHAGEESSK [C18A]	3.76
FHKDCASRVNNASYCPHCGEESSI [K24I]	3.27
FHKDCASRVNNASYKPHCGEESSK [C15K]	3.68
FHKDCASRVNNASYCPHCPEESSK [G19P]	3.75
FHKDRASRVNNASYCPHCGEESSK [C5R]	2.36
FHKDCASRSNNASYCPHCGEESSK [V9S]	3.79
FHKDCASRVNNASYCPHCTEESSK [G19T]	3.51

Variant	protein stability index
FHKDCADRVNNASYCPHCGEESSK [S7D]	3.23
FHKDCASRVNNASYCQHCGEESSK [P16Q]	3.61
FHKDCASRVNNASYCPHCGEESMK [S23M]	3.49
FHKDCASRVNNASYCPLCGEESSK [H17L]	3.05
FHKDCASRVQNASYCPHCGEESSK [N10Q]	3.52
FHGDCASRVNNASYCPHCGEESSK [K3G]	2.73
FHKDCASRVNNASYCPHCGEESSS [K24S]	3.48
FHKDCASRVNNASYCPHCGEESSE [K24E]	3.11
FHKDCASRVNNASYCPHCGEESSW [K24W]	3.05
FHKDCASRVNNASYCPNCGEESSK [H17N]	3.85
FHKCCASRVNNASYCPHCGEESSK [D4C]	4.12
FHKDCASRVNNASYCPHCGEESSY [K24Y]	2.9
FHKDCASRVNNASYCPYCGEESSK [H17Y]	2.87
FHKGCASRVNNASYCPHCGEESSK [D4G]	2.56
AHKDCASRVNNASYCPHCGEESSK [F1A]	4.71
FHKDCACRVNNASYCPHCGEESSK [S7C]	4.27
FHKDCASRVNNPSYCPHCGEESSK [A12P]	3.25
FHKDCASRVNNASYCPHCGEGSSK [E21G]	3.29
FHLDCASRVNNASYCPHCGEESSK [K3L]	2.57
FHKDCASRVNNASYCHHCGEESSK [P16H]	3.15
FHKDCASRVNNASCCPHCGEESSK [Y14C]	3.66
FHKDCASRVNNAWYCPHCGEESSK [S13W]	2.15
FHKDCASRVNNASYCPHCGEESSN [K24N]	2.99
FHKDCALRVNNASYCPHCGEESSK [S7L]	3.44

Variant	protein stability index
FHKDCSSRVNNASYCPHCGEESSK [A6S]	3.52
FHKDCASRVNNASYCPHCGKESSK [E20K]	3.68
FHKDCASRVNNASYCPHCGEEHSK [S22H]	4.09
FHKDCASRVNNASYCPHNGEESSK [C18N]	3.67
FHKDTASRVNNASYCPHCGEESSK [C5T]	2.25
FHKDCASRVNAASYCPHCGEESSK [N11A]	2.91
FHKDCASRVNNLSYCPHCGEESSK [A12L]	3.06
FHKDCASRVNVASYCPHCGEESSK [N11V]	3.12
FHKDCASRVNNASYWPHCGEESSK [C15W]	2.08
FHKICASRVNNASYCPHCGEESSK [D4I]	2.56
FHKDCLSRVNNASYCPHCGEESSK [A6L]	2.85
FHKLCASRVNNASYCPHCGEESSK [D4L]	2
FHKDKASRVNNASYCPHCGEESSK [C5K]	2.13
FHKDCASRMNNASYCPHCGEESSK [V9M]	3.37
FHKDCASRVNNASYCCHCGEESSK [P16C]	3.11
FHKDCASRVNNTSYCPHCGEESSK [A12T]	3.31
FHVDCASRVNNASYCPHCGEESSK [K3V]	2.92
FHKDCASRVNTASYCPHCGEESSK [N11T]	3.21
FHKDCASRVNNASYCPHCSEESSK [G19S]	3.48
FHKDCASRVNNASYCPHCGPESSK [E20P]	3.27
FHKDCASRVCNASYCPHCGEESSK [N10C]	3.75
FHKDCASRVNNASYCPHCGAESSK [E20A]	3.21
FFKDCASRVNNASYCPHCGEESSK [H2F]	3.27
FHKDCASRVNMASYCPHCGEESSK [N11M]	3.36

Variant	protein stability index
FHKDCASRVNNASYCPHCGGESSK [E20G]	3.6
FHKDCAGRVNNASYCPHCGEESSK [S7G]	3.47
FHKDCASRVNNASYCIHCGEESSK [P16I]	3.36
QHKDCASRVNNASYCPHCGEESSK [F1Q]	5.09
FHKDCASRVNGASYCPHCGEESSK [N11G]	3.37
FHKDCASRVNNASYCPHCGEHSSK [E21H]	3
FHKDCASRVDNASYCPHCGEESSK [N10D]	3.9
FHKDCASRVNNASYCPHCGEESSL [K24L]	3.43
GHKDCASRVNNASYCPHCGEESSK [F1G]	5.15
FHKDCASRVNNADYCPHCGEESSK [S13D]	3.81
FHKDCASRVNNASYCVHCGEESSK [P16V]	3.89
FHKDCASRVNNASYCPHCGEEISK [S22I]	3.68
FHKDCAVRVNNASYCPHCGEESSK [S7V]	3.72
FSKDCASRVNNASYCPHCGEESSK [H2S]	3.1
FHKDCASRVNNASYCPHCGEMSSK [E21M]	2.64
FHPDCASRVNNASYCPHCGEESSK [K3P]	2.22
FHKDQASRVNNASYCPHCGEESSK [C5Q]	2.25
SHKDCASRVNNASYCPHCGEESSK [F1S]	4.77
FHKDCASRVNNASYCPHCGTESSK [E20T]	3.19
FHKDCASRVMNASYCPHCGEESSK [N10M]	2.98
FHKDCASRVGNASYCPHCGEESSK [N10G]	3.74
FHKDCASRVNNASYCPHCGEESSD [K24D]	3.58
